Measured values as given in publication PMC3806657 (Molecular Biology of the Cell, 2013).

T1: 6His-tagged GEF domain of Gef2 (aa 211-600) (S. pombe, UniProt Q09733 211-600)
T1 sequence: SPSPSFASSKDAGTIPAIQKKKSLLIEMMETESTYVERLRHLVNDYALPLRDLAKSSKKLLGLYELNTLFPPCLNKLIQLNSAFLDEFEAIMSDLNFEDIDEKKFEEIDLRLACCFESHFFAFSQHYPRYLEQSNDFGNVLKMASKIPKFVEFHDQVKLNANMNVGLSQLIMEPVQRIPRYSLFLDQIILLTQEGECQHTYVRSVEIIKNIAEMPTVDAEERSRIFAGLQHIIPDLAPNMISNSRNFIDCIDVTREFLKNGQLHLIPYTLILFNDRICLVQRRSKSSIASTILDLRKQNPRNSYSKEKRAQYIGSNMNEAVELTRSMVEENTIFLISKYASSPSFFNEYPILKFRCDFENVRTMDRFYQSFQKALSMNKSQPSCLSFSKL

B1: GST-Rho4 (enzyme)
chain: MSAFKKSGSKSETSKKLVVVGDGGCGKTCLLIVFSSGTFPERYVPTVFENYITDITYGPNSKVIELALWDTAGQEEYDRLRPLSYPNSNVILLCFSIDCPASLNNVTEKWYPEVQHFCPRTPIVLVGLKADLRKDRNATEVLRTQGLTPVTYQQAQSVALSMNAPYVECSAKENTGVNEVFQLAVGLTIKKSFSFSKKSCVIL
B2: GST-Rho5 (enzyme)
chain: MTTELRRKLVIVGDGACGKTCLLIVFSKGTFPEVYVPTVFENYVADVEVDGRHIELALWDTAGQEDYDRLRPLSYPDSHVVLICFSVDAPESLDNVQEKWISEVLHFCSNLPILLVGCKVDLRNDPKTIEELSKTSQKPITFEEGQVVAQKIGAYKYLECSAKLNEGVNEVFETAARASMLKFKPASVPKTKKKKHCILL
B3: GST-Rho1 (enzyme)
chain: MATELRRKLVIVGDGACGKTCLLIVFSKGTFPEVYVPTVFENYVADVEVDGRHVELALWDTAGQEDYDRLRPLSYPDSHVILICFAVDSPDSLDNVQEKWISEVLHFCSSLPILLVACKADLRNDPKIIEELSKTNQHPVTTEEGQAVAQKIGAYKYLECSAKTNEGVREVFESATRAAMLKHKPKVKPSSGTKKKKRCILL

Each binder was assayed against T1, 6His-tagged GEF domain of Gef2 (aa …) (assay: pull-down).

Binder | binding result
B1 | binds
B2 | binds
B3 | binds
